Measurements reported in patent publication US20210238283A1 (Y BIOLOGICS, published 2021).

Experiments:
[1] = molecular target: T1, mouse LAG-3 overexpressed on HEK293E cells (mouse, UniProt Q61790 24-521); assay: flow cytometry, HEK293E cells overexpressing mouse LAG-3
T1 construct: whole, on cells; also called HEK293E-mLAG3; mLAG3 (Mouse)
T1 sequence (looked up): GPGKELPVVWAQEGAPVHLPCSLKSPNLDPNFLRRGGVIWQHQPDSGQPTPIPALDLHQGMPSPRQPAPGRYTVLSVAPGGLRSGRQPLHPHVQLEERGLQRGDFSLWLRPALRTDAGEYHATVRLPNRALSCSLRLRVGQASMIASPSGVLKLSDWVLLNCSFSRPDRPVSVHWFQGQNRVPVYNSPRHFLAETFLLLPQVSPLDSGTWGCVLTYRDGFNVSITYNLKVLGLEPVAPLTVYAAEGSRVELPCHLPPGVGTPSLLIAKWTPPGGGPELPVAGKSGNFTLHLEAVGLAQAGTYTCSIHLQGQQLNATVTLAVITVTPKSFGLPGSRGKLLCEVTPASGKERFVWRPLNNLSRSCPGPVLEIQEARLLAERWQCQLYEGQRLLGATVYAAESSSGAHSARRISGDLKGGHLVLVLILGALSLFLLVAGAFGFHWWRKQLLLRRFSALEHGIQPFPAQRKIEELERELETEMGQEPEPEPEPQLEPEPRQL
Experimental: After that, the cells were washed three times with PBS containing 2% FBS and then subjected to the reaction for 30 minutes at 4° C. with anti-human IgG antibody (#FI-3000, Vectorlabs) linked with FITC fluorescent. The cells were washed by the same washing process as above followed by suspension in 0.2 ml PBS containing 2% FBS. The cells were then analyzed by FACSCanto II flow cytometer.

[2] = molecular target: T2, recombinant human LAG-3 extracellular domain fused with mouse Fc (hLAG-3-mFc) (human, UniProt P18627 29-450); assay: BLI (Octet QKe), 1:1 global fit
T2 construct: range 29-450; Made in HEK293F cells; also called human LAG-3 antigen; wild-type (WT) LAG-3; not shown: mouse Fc (mFc) at the carboxy terminal
T2 sequence (looked up): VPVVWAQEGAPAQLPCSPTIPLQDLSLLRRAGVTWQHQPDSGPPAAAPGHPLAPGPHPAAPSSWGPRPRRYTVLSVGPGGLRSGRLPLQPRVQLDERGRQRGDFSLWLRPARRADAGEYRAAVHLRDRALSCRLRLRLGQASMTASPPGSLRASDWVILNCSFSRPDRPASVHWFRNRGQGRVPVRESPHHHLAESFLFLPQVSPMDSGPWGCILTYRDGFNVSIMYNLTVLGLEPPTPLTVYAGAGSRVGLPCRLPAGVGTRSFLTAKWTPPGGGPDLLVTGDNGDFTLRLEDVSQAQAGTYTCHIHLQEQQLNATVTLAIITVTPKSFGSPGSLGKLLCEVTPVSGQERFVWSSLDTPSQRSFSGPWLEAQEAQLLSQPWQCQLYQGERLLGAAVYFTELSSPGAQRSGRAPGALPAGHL
Experimental: (§1) After stabilization for 10 minutes in a buffer (#18-1042, Fortebio Inc.), immobilized antigen or antibody was washed out for 5 minutes with the buffer. The antibody or antigen desired for binding was prepared at different concentrations (0.94-60 nM) in a 96-well plate (#655209, Greiner Bio-One, USA) and subjected to the association reaction for 10 minutes followed by dissociation reaction for 10 minutes or 30 minutes.

[3] = molecular target: T3, recombinant monkey LAG-3 fused with mouse Fc (MrhLAG-3-mFc) (monkey); assay: BLI (Octet QKe), 1:1 global fit
T3 construct: also called monkey LAG-3 antigen
Experimental: as §1

[4] = molecular target: T4, recombinant mouse LAG-3 fused with mouse Fc (mLAG-Fc) (mouse, UniProt Q61790 24-442, limits assumed); assay: BLI (Octet QKe), 1:1 global fit
T4 construct: also called mouse LAG-3 antigen; not shown: mouse Fc (mFc) at the carboxy terminal
T4 sequence (looked up): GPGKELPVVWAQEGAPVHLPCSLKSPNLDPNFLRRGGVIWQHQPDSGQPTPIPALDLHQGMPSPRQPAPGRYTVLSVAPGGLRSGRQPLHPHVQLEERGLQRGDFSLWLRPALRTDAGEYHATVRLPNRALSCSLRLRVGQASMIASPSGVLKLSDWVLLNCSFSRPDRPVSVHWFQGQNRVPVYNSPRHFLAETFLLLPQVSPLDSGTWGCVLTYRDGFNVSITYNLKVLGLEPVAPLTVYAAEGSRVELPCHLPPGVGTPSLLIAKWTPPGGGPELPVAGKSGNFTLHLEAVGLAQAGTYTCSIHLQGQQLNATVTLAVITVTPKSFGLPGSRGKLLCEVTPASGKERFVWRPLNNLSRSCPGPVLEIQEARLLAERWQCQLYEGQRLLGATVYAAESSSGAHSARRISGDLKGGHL
Experimental: as §1

[5] = molecular target: T2, recombinant human LAG-3 extracellular …; assay: flow cytometry, inhibition of LAG-3-mFc binding to Raji cells (MHC class II)
Experimental: After that, the antigen-antibody mixture was reacted with the prepared cells for 30 minutes at 4° C. […] After washing them in the same manner as above and suspending them in 0.2 ml PBS containing 2% FBS, analysis was made using CytoFLEX flow cytometer (Beckman coulter, USA)

[6] = molecular target: T5, human LAG-3 overexpressed on cells (human, UniProt P18627 23-525); assay: cell-based or functional assay
T5 sequence (looked up): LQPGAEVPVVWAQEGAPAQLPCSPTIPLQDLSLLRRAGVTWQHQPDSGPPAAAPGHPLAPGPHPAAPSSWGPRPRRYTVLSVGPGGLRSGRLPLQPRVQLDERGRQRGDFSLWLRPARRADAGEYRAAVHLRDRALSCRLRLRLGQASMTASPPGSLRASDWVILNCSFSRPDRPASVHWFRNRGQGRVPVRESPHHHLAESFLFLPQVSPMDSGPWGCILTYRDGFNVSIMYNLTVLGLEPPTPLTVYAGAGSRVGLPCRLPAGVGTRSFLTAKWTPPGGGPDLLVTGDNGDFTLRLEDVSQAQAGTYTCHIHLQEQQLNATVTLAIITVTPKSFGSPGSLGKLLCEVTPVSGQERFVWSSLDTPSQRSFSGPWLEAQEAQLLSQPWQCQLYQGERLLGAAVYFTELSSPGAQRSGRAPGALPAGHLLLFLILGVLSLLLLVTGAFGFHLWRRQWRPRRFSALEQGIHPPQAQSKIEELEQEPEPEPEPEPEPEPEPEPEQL

EC50 [1]: 1.5 µg/mL
Kd [2]: 0.0918 nM
Kd [3]: 0.328 nM
Kd [4]: 0.596 nM
IC50 [5]: 25.1 nM
EC50 value representing the capacity of recovering the inhibition [6]: 0.0578 µg/mL
activity against the control antibody (fold) [6]: ~2.9 times
B1: human anti-LAG-3 monoclonal antibody 1E09 (antibody, V domains shown)
VH: QVQLVQSGGDLVKPGGSLRLSCAASGFSFSDHYMNWIRQAPGKGLEWVAYIDTSATYIYYADSVKGRFTISRDNAKNSLYLQMNSLRAEDTAVYYCARDNWGSLDYWGQGALVTVSS
VL: DIQMTQSPSSLSPSVGDRVTITCQASQEISIYLNWYQQKPGKAPKLLIYDASNLETGVPSRFSGSGSGTDFTLTISSLQPEDFATYYCQQTYITPYTFGQGTKLDIK
notes: Tested as full IgG converted from scFv; also called LAG-3-1E09; Parent (1E09)
